Results: patent US20140363428A1 (Chugai, published 2014)
Changes are numbered by the printed parent chain. One block for each binder: values may come before it.

Key:
soluble human FcRn [1] = target: T1, soluble human FcRn (human, UniProt P55899 24-297; P61769 21-119); experiment: SPR (Biacore), pH 7.0, 25 C;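 also: antibodies captured on a protein L-coated CM4 chip with human FcRn injected as analyte, KD obtained from ka and kd fitted to sensorgrams, in sodium phosphate buffer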
T1 construct: Heterodimer of alpha chain and beta2-microglobulin; also called hFcRn

soluble human FcRn [2] = target: T1, soluble human FcRn; experiment: SPR (Biacore), pH 7.0

B1: IgG1-F1353 (antibody)
heavy: QVQLQESGPGLVKPSETLSLTCAVSGHSISHDHAWSWVRQPPGEGLEWIGFISYSGITNYNPSLQGRVTISRDNSKNTLYLQMNSLRAEDTAVYYCARSLARTTAMDYWGEGTLVTVSSASTKGPSVFPLAPSSKSTSGGTAALGCLVKDYFPEPVTVSWNSGALTSGVHTFPAVLQSSGLYSLSSVVTVPSSSLGTQTYICNVNHKPSNTKVDKKVEPKSCDKTHTCPPCPAPELRGGPKVFLFPPKPKDTLYISRTPEVTCVVVDVSHEDPEVKFNWYVDGVEVHNAKTKPREEQYNSTYRVVSVLTVLHQDWLNGKEYKCKVSNKALPAPIEKTISKAKGQPREPQVYTLPPSRDELTKNQVSLTCLVKGFYPSDIAVEWESNGQPENNYKTTPPVLDSDGSFFLYSKLTVDKSRWQQGNVFSCSVMHEALDYHTTRKELSLSP
light: not shown
Kd (soluble human FcRn [1]): 430 nM

B3: F1646 (antibody)
chain 1: B1 heavy with S256T, T258E, D435K, T438V, R440K, E442D
chain 2: DIQMTQSPSSLSASVGDSVTITCQASTDISSHLNWYQQKPGKAPELLIYYGSHLLSGVPSRFSGSGSGTDFTFTISSLEAEDAATYYCGQGNRLPYTFGQGTKVEIERTVAAPSVFIFPPSDEQLKSGTASVVCLLNNFYPREAKVQWKVDNALQSGNSQESVTEQDSKDSTYSLSSTLTLSKADYEKHKVYACEVTHQGLSSPVTKSFNRGEC
Kd (soluble human FcRn [2]): 35 nM

B5: F1644 (antibody)
chain 1: B1 heavy with S256T, T258E, D435K, T438V, R440K
chain 2: B3 chain 2
Kd (soluble human FcRn [2]): 35 nM

B8: F1650 (antibody)
chain 1: B1 heavy with S256T, T258E, D435R, T438V, R440K
chain 2: B3 chain 2
Kd (soluble human FcRn [2]): 40 nM

B11: IgG1-F1359 (antibody)
heavy: B1 heavy with S256T, D435H, T438F
light: not shown
Kd (soluble human FcRn [1]): 130 nM

B13: IgG1-F1361 (antibody)
heavy: B1 heavy with S256T
light: not shown
Kd (soluble human FcRn [1]): 350 nM

B14: IgG1-F1360 (antibody)
heavy: B1 heavy with S256T, R440K
light: not shown
Kd (soluble human FcRn [1]): 310 nM

B15: IgG1-F1358 (antibody)
heavy: B1 heavy with S256T, D435H, T438F, R440K
light: not shown
Kd (soluble human FcRn [1]): 91 nM

B16: IgG1-F1355 (antibody)
heavy: B1 heavy with T438F
light: not shown
Kd (soluble human FcRn [1]): 250 nM

B17: IgG1-F1356 (antibody)
heavy: B1 heavy with R237L, G238R, K241S, L330R, D435H, T438V, R440Q, E442S
light: not shown
Kd (soluble human FcRn [1]): 160 nM

B18: IgG1-F1362 (antibody)
heavy: B1 heavy with S256T, T438F, R440K
light: not shown
Kd (soluble human FcRn [1]): 140 nM

Next, values leading:

Kd (soluble human FcRn [2]): 38 nM
B2: F1648 (antibody)
chain 1: B1 heavy with S256T, T258E, D435P, T438V, E442D
chain 2: B3 chain 2

Kd (soluble human FcRn [2]): 38 nM
B4: F1647 (antibody)
chain 1: B1 heavy with S256T, T258E, D435P, T438V, R440K
chain 2: B3 chain 2

Kd (soluble human FcRn [2]): 37 nM
B6: F1649 (antibody)
chain 1: B1 heavy with S256T, T258E, D435P, T438V, R440K, E442D
chain 2: B3 chain 2

Kd (soluble human FcRn [2]): 36 nM
B7: F1645 (antibody)
chain 1: B1 heavy with S256T, T258E, D435K, T438V, E442D
chain 2: B3 chain 2

Kd (soluble human FcRn [1]): 280 nM
B9: IgG1-F1357 (antibody)
heavy: B1 heavy with S256T, D435H
light: not shown

Kd (soluble human FcRn [1]): 75 nM
B10: IgG1-F1364 (antibody)
heavy: B1 heavy with T258E, D435H, T438F, R440K
light: not shown

Kd (soluble human FcRn [1]): 230 nM
B12: IgG1-F1354 (antibody)
heavy: B1 heavy with T438F, R440K
light: not shown
